The RNAGym collection of RNA variant scans (doi:10.7554/elife.80360)

B1: CPEB3 Ribozyme (parent)
chain: GGGGGCCACAGCAGAAGCGUUCACGUCGCGGCCCCUGUCAGAUUCUGGUGAAUCUGCGAAUUCUGCUGU

Variants of: B1
Test: self-cleavage, relative activity (ratio to wild type); higher = more cleavage; co-transcriptional

| Variant | self-cleavage |
| --- | --- |
| G11U G30C | 0.455 |
| G11U G30A | 0.589 |
| G11U C12G | 0.577 |
| G11U C12A | 0.549 |
| G11U C12U | 0.44 |
| G11C U62C | 0.402 |
| G11C U62G | 0.251 |
| G11C U62A | 0.409 |
| G11A C32A | 0.816 |
| G11A C32G | 0.293 |
| G11A G41U | 0.342 |
| G11A G41C | 0.278 |
| G11A G41A | 0.276 |
| G11A G58C | 0.876 |
| G11A G58A | 0.842 |
| G11A G58U | 0.905 |
| G11U C35U | 0.815 |
| G11U C35G | 0.341 |
| G11A U44C | 0.528 |
| G11A U44G | 0.76 |
| G11U C57G | 0.204 |

| Variant | self-cleavage |
| --- | --- |
| G11U C57U | 0.215 |
| G11U C57A | 0.31 |
| G11A C18A | 0.107 |
| G11A C18G | 0.106 |
| G11A C18U | 0.278 |
| G11A U67C | 0.996 |
| G11A U67G | 0.98 |
| G11C U26G | 0.417 |
| G11C U26C | 0.729 |
| G11C U26A | 0.387 |
| G11A C22U | 0.191 |
| G11A C22A | 0.127 |
| G11C G14A | 0.0859 |
| G11C G14U | 0.172 |
| G11C G14C | 0.0758 |
| G11U G37C | 0.213 |
| G11U G37A | 0.145 |
| G11U G37U | 0.165 |
| G11U C24U | 0.422 |
| G11U C24G | 0.177 |
| G11A C39G | 0.646 |

| Variant | self-cleavage |
| --- | --- |
| G11A C39U | 0.609 |
| G11A C39A | 0.405 |
| G11A A60U | 0.323 |
| G11A A60G | 0.434 |
| G11A U64G | 0.661 |
| G11A U64A | 0.655 |
| G11A U64C | 0.513 |
| G11A C35U | 0.861 |
| G11A C35A | 0.242 |
| G11U C45A | 0.732 |
| G11U C45U | 0.893 |
| G11C U21G | 0.199 |
| G11C U21C | 0.431 |
| G11C C35G | 0.209 |
| G11A A51G | 0.865 |
| G11A A51U | 0.847 |
| G11U C63U | 0.498 |
| G11U C63G | 0.231 |
| G11U G19C | 0.135 |
| G11U G19A | 0.115 |
| G11U G19U | 0.118 |

| Variant | self-cleavage |
| --- | --- |
| G11C G48A | 0.921 |
| G11C G48C | 0.963 |
| G11C A42U | 0.41 |
| G11C A42G | 0.51 |
| G11C U64C | 0.424 |
| G11C U64A | 0.385 |
| G11C G25C | 0.177 |
| G11C G25A | 0.149 |
| G11U G31U | 0.499 |
| G11U G31C | 0.138 |
| G11U A16C | 0.101 |
| G11U A16U | 0.48 |
| G11A G48U | 0.885 |
| G11A G48C | 0.951 |
| G11A U36C | 0.727 |
| G11A U36G | 0.131 |
| G11A U36A | 0.211 |
| G11U C34G | 0.635 |
| G11U C34U | 0.915 |
| G11C C39A | 0.257 |
| G11C C39G | 0.408 |
